# B1: C. sporogenes MGL (Clostridium sporogenes) (protein)
# chain: MENIEKMGFATKAIHGGHIGDKQFGSLATPIYQTSTFIFDSAEQGGRRFAGEESGYIYSRLGNPTSTEVENKLALLEGGEAAVVAASGMGAIAASLWSALKSGDHVVASDTLYGCTFALLNHGLTRYGVEVTFVDVSNLDEVKNALKPNTKVVYLETPANPTLKVTDIRKISNMVHESNKECFVFVDNTFCTPYIQRPLELGADVVVHSATKYLNGHGDVIAGFAVGKEEFINQVKLFGIKDMTGSVTGPFESFLIIRGMKTLQLRMEKHCKNAMEVAKFLEAHPAVEKVYYPGLESFQYYQLAREQMKLPGAMISFELKGGVEEGKIVMNNVRLATLAVSLGDSETLIQHPASMTHSPYTAEERKAAGISDGLVRLSVGLEDAEDIINDLKQALDLIVK
# notes: subunit 43 kDa; PLP enzyme
# Assays:
# C. sporogenes MGL [1] = target: T1, C. sporogenes MGL (Clostridium sporogenes, UniProt A0A7X5SZI3); test: inhibition of L-Met γ-elimination, NADH-coupled with D-2-hydroxyisocaproate dehydrogenase, Dixon plot; format: biochemical
# T1 construct: gene megL; subunit 43 kDa; PLP enzyme
# T1 sequence (A0A7X5SZI3 1-400): B1 chain
# Description: inhibition of L-Met γ-elimination, NADH-coupled with D-2-hydroxyisocaproate dehydrogenase, Dixon plot on C. sporogenes MGL
# C. sporogenes MGL [2] = target: T1, C. sporogenes MGL; test: γ-elimination steady-state kinetics, NADH-coupled with D-2-hydroxyisocaproate dehydrogenase, […] nm; format: biochemical; conditions: pH 8.0, 100 mM potassium phosphate, 0.1 mM PLP, 1 mM DTT, 1 mM EDTA, 30 °C
# C. sporogenes MGL [3] = target: T1, C. sporogenes MGL; test: absorption spectrum of holoenzyme, lognormal deconvolution of internal aldimine bands; format: binding; conditions: covalent internal aldimine; pH 8.0, 25 °C, working buffer without PLP
# purified protein [4] = substrate: CC(=O)OCC[C@H](N)C(=O)O; test: purified protein; format: biochemical, Clostridium sporogenes; conditions: pH 8.0, 100 mM potassium phosphate, 0.1 mM PLP, 1 mM DTT, 1 mM EDTA, 30 °C
# purified protein [5] = substrate: CC(=O)OC[C@H](N)C(=O)O; test: purified protein; format: biochemical, Clostridium sporogenes; conditions: pH 8.0, 100 mM potassium phosphate, 0.1 mM PLP, 1 mM DTT, 1 mM EDTA, 30 °C
# purified protein [6] = substrate: C[S+]([O-])CC[C@H](N)C(=O)O; test: purified protein; format: biochemical, Clostridium sporogenes; conditions: pH 8.0, 100 mM potassium phosphate, 0.1 mM PLP, 1 mM DTT, 1 mM EDTA, 30 °C
# purified protein [7] = substrate: CSCC[C@H](N)C(=O)O; test: purified protein; format: biochemical, Clostridium sporogenes; conditions: pH 8.0, 100 mM potassium phosphate, 0.1 mM PLP, 1 mM DTT, 1 mM EDTA, 30 °C
# purified protein [8] = substrate: CCSC[C@H](N)C(=O)O; test: purified protein; format: biochemical, Clostridium sporogenes; conditions: pH 8.0, 100 mM potassium phosphate, 0.1 mM PLP, 1 mM DTT, 1 mM EDTA, 30 °C
# purified protein [9] = substrate: CC[S+]([O-])CC[C@H](N)C(=O)O; test: purified protein; format: biochemical, Clostridium sporogenes; conditions: pH 8.0, 100 mM potassium phosphate, 0.1 mM PLP, 1 mM DTT, 1 mM EDTA, 30 °C
# purified protein [10] = substrate: CC[S+]([O-])C[C@H](N)C(=O)O; test: purified protein; format: biochemical, Clostridium sporogenes; conditions: pH 8.0, 100 mM potassium phosphate, 0.1 mM PLP, 1 mM DTT, 1 mM EDTA, 30 °C
# purified protein [11] = substrate: C=CC[S+]([O-])C[C@H](N)C(=O)O; test: purified protein; format: biochemical, Clostridium sporogenes; conditions: pH 8.0, 100 mM potassium phosphate, 0.1 mM PLP, 1 mM DTT, 1 mM EDTA, 30 °C
molecule,measurement,setting,value
CC[C@H](N)C(=O)O [L-Abu],Ki,C. sporogenes MGL [1],2 mM
CCSCC[C@H](N)C(=O)O [S-Et-L-Hcy],Km,C. sporogenes MGL [2],240 µM
CCCC[C@H](N)C(=O)O [L-Nle],Ki,C. sporogenes MGL [1],0.37 mM
CCC[C@H](N)C(=O)O [L-Nva],Ki,C. sporogenes MGL [1],1.9 mM
C[C@H](N)C(=O)O [L-Ala],Ki,C. sporogenes MGL [1],1.5 mM
Cc1ncc(COP(=O)(O)O)c(C=O)c1O [PLP],"absorption spectrum of holoenzyme, lognormal deconvolution of internal aldimine",C. sporogenes MGL [3],The ionic form of the internal aldimine and tautomeric equilibrium are almost the same
B1,Km,purified protein [4],3180 µM
same,kcat,purified protein [4],37.3 s⁻¹
same,kcat/Km,purified protein [4],11700 M⁻¹ s⁻¹
same,Km,purified protein [5],8010 µM
same,Km,purified protein [6],11390 µM
same,kcat,purified protein [6],21.7 s⁻¹
same,kcat/Km,purified protein [6],1900 M⁻¹ s⁻¹
same,Km,purified protein [7],600 µM
same,kcat,purified protein [7],21.6 s⁻¹
same,kcat/Km,purified protein [7],36000 M⁻¹ s⁻¹
same,Km,purified protein [8],430 µM
same,kcat,purified protein [8],6.53 s⁻¹
same,kcat/Km,purified protein [8],15200 M⁻¹ s⁻¹
same,Km,purified protein [9],600 µM
same,kcat,purified protein [9],0.48 s⁻¹
same,kcat/Km,purified protein [9],800 M⁻¹ s⁻¹
same,Km,purified protein [10],330 µM
same,kcat,purified protein [10],1.39 s⁻¹
same,kcat/Km,purified protein [10],4210 M⁻¹ s⁻¹
same,Km,purified protein [11],1430 µM
same,kcat,purified protein [11],11.4 s⁻¹
same,kcat/Km,purified protein [11],7990 M⁻¹ s⁻¹

# Source: PMC4717258, “Sulfoxides, Analogues of L-Methionine and L-Cysteine As Pro-Drugs against Gram-Positive and Gram-Negative Bacteria” (Acta Naturae, 2015)
